Source: paper PMC11948038, “Evolutionary Pro‐To‐Thr Mutation in the Intrinsically Disordered Domain of ANP32 Family Members Modulates Their Target Binding Modes” (Advanced Science, 2025)
One block for each binder: values may come before it.

B3: cytochrome c (natural protein)
chain: not shown
notes: cytochrome c (Cc), a hemeprotein; Carries a heme group; the reduced form was used in ITC and NMR relaxation; 15N-labelled for the NMR titrations; Expression and purification are in the Supporting Information Appendix; also called Cc; hemeprotein Cc; source: details in the Supporting Information

Legend:
Conditions in all cases: both partners purified
HuR_(106-326) [1] = target: T1, HuR_(106-326) (UniProt Q15717 106-326); assay: ITC; 1 mM peptide titrated onto 100 µM HuR106-326 in the cell; 17 injections of 2.91 µL; 10 mM sodium phosphate buffer pH 6.3 (low ionic strength); stirring 200 rpm; Nano ITC Low Volume
T1 construct: amplified from a pGEX-4T-2 plasmid carrying full-length HuR; No cleavage of the tags is told; also called human antigen R construct with RRM2, hinge region and RRM3; source: E. coli BL21 (DE3), purified (Ni-NTA, dialysis)
T1 sequence (Q15717 106-326): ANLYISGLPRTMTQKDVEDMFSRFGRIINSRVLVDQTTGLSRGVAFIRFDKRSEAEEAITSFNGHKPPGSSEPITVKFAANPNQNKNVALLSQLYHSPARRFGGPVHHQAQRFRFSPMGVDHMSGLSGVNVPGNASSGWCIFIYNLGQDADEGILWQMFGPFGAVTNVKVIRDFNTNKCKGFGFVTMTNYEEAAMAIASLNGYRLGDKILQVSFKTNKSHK

full-length ANP32A [2] = target: T2, full-length ANP32A (human, UniProt P39687 1-249); assay: ITC; low ionic strength (25 mM): 10 mM sodium phosphate pH 7.4; 400 µM reduced Cc injected into 50 µM ANP32A construct; two-ligand binding sites model, no cooperativity
T2 construct: Used in ITC and NMR titrations; construct details are in the Supporting Information Appendix; also called acidic leucine-rich nuclear phosphoprotein 32 A; source: details in the Supporting Information

biotinylated ANP32B = target: T3, biotinylated ANP32B (human, UniProt Q92688 1-251, biotin (site not stated)); assay: BLI; biotinylated ANP32 proteins on a streptavidin-coated sensor, increasing concentrations of Cc; wavelength shifts at equilibrium plotted against Cc concentration
T3 construct: ANP32B, human, biotinylated and attached to a streptavidin-coated sensor

biotinylated ANP32A = target: T4, biotinylated ANP32A (human, UniProt P39687 1-249, biotin (site not stated)); assay: as above
T4 construct: ANP32A, human, biotinylated and attached to a streptavidin-coated sensor

full-length ANP32A [3] = target: T2, full-length ANP32A; assay: ITC; moderate ionic strength (100 mM): 20 mM sodium phosphate pH 7.4 with 50 mM NaCl; 400 µM reduced Cc injected into 50 µM ANP32A; single site
full-length ANP32A [4] = target: T2, full-length ANP32A; assay: ITC; low ionic strength (25 mM): 10 mM sodium phosphate pH 7.4; 400 µM reduced Cc injected into 50 µM ANP32A construct; two-ligand binding sites model, no cooperativity; remark: listed apart in the source
cytochrome c = target: B3; assay: ITC; 1 mM peptide titrated onto 110 or 150 µM reduced Cc; 10 mM sodium phosphate pH 6.3; single binding-site model
Chain of cytochrome c (P99999 2-105): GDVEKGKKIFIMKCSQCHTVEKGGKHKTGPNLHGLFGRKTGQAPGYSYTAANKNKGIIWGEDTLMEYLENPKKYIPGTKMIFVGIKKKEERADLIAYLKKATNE

HuR_(106-326) [5] = target: T5, HuR_(106-326) (UniProt Q15717 106-326); assay: ITC; 1 mM peptide titrated onto 100 µM HuR_(106-326); 10 mM sodium phosphate pH 6.3, low ionic strength
T5 construct: also called HuR construct containing the RRM domains 2 and 3, separated by the hinge region; source: details in the Supporting Information
T5 sequence (Q15717 106-326): as the sequence (Q15717 106-326) above

B2: ANP32A_(230-249) peptide (peptide)
peptide: EEERGQKRKREPEDEGEDDD
notes: also called ANP32A peptide; source: synthetic peptide (Genecust, France)
Kd (HuR_(106-326) [1]): 120 µM
stoichiometry N (HuR_(106-326) [1]): 1.8 ± 0.03

Binder: B3
stoichiometry N (full-length ANP32A [2]): 2
Kd (biotinylated ANP32B): ~4.2 µM
Kd (biotinylated ANP32A): ~2.3 µM
Kd (full-length ANP32A [3]): 32 µM
dH (full-length ANP32A [3]): 1.5 kcal/mol
stoichiometry N (full-length ANP32A [3]): 0.6 ± 0.03
KD of site 1 (full-length ANP32A [4]): 3.6 µM
KD of site 2 (full-length ANP32A [4]): 34 µM
dH of site 1 (full-length ANP32A [4]): 0.4 kcal/mol
dH of site 2 (full-length ANP32A [4]): 8.6 kcal/mol

B4: ANP32A_(230-249) P241T peptide (peptide)
peptide: EEERGQKRKRETEDEGEDDD
notes: also called single mutant; source: synthetic peptide (Genecust, France)
Kd (cytochrome c): 190 µM
dH (cytochrome c): -6.9 kcal/mol
stoichiometry N (cytochrome c): 0.77 ± 0.03

B5: ANP32A_(230-249) Q235E/P241T peptide (peptide)
peptide: EEERGEKRKRETEDEGEDDD
notes: also called double mutant; source: synthetic peptide (Genecust, France)
Kd (cytochrome c): 190 µM
dH (cytochrome c): -8.2 kcal/mol
stoichiometry N (cytochrome c): 0.77 ± 0.03

Now from value to binder:

Kd (HuR_(106-326) [1]): 550 µM
stoichiometry N (HuR_(106-326) [1]): 1.9 ± 0.03
B1: ANP32B_(232-251) peptide (peptide)
peptide: EEGGKGEKRKRETDDEGEDD
notes: also called ANP32B peptide; source: synthetic peptide (Genecust, France)

fold affinity against ANP32B_(232-251) (HuR_(106-326) [5]): ~5 fold
stoichiometry N (HuR_(106-326) [5]): 2
Kd (cytochrome c): 69 µM
dH (cytochrome c): -2.6 kcal/mol
stoichiometry N (cytochrome c): 0.76 ± 0.03
B6: ANP32A_(230-249) peptide (peptide)
peptide: EEERGQKRKREPEDEGEDDD
notes: also called ANP32A peptide; NLS-containing peptide; source: synthetic peptide (Genecust, France)

stoichiometry N (HuR_(106-326) [5]): 2
Kd (cytochrome c): 710 µM
dH (cytochrome c): -8 kcal/mol
stoichiometry N (cytochrome c): 1.2 ± 0.03
B7: ANP32B_(232-251) peptide (peptide)
peptide: EEGGKGEKRKRETDDEGEDD
notes: as for B1
